Results taken from article PMC2917807 (Journal of molecular biology, 2010).

T1: LexA-SoxS bait fusion protein (pGILDA-SoxS), wild type SoxS (Escherichia coli, UniProt P0A9E2 1-107)
T1 sequence (looked up): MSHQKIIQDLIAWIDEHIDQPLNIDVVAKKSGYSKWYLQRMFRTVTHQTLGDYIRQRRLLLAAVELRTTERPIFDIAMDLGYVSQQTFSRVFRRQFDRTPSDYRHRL


Tests used:
[1] = target: LexA-SoxS bait fusion protein (pGILDA-SoxS), wild type SoxS (Escherichia coli) (UniProt P0A9E2); assay: two-hybrid
[2] = target: T1, LexA-SoxS bait fusion protein …; assay: two-hybrid

Chain of B42AD-αCTD prey fusion protein (pB42AD-αCTD) (domain or fragment) (A1AGI6 whole entry, the tested form may be a part): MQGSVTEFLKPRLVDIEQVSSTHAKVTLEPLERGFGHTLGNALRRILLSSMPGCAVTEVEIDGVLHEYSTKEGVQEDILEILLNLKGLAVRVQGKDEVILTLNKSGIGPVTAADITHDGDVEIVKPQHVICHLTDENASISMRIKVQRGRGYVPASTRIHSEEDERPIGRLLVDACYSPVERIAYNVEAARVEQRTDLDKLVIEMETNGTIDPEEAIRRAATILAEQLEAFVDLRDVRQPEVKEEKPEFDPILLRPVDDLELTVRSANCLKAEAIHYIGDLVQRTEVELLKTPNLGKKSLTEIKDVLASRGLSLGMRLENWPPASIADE

| Molecule | induction ratio of reporter β-galactosidase [1] | induction ratio of reporter β-galactosidase [2] |
| --- | --- | --- |
| B42AD-αCTD prey fusion protein (pB42AD-αCTD) (domain or fragment) | 25 | – |
| B42AD-σ^70 R4 prey fusion protein (pB42AD-σ^70 R4), wild type region 4 of σ^70 (domain or fragment, Escherichia coli, UniProt P00579 530-613, looked up) LPLDSATTESLRAATHDVLAGLTAREAKVLRMRFGIDMNTDYTLEEVGKQFDVTRERIRQIEAKALRKLRHPSRSEVLRSFLDD | – | 14 |
